Data from paper PMC5680108 (Cellular microbiology, 2017).
Like-named read-outs stand apart in the source and are kept apart here.

B1: GST-OspCB31, GST fused to OspC from B. burgdorferi strain B31-A3 (natural protein)
chain: CNNSGKDGNTSANSADESVKGPNLTEISKKITDSNAVLLAVKEVEALLSSIDEIAAKAIGKKIHQNNGLDTENNHNGSLLAGAYAISTLIKQKLDGLKNEGLKEKIDAAKKCSETFTNKLKEKHTDLGKEGVTDADAKEAILKTNGTKTKGAEELGKLFESVEVLSKAAKEMLANSVKELTSPVVAESPKKP

Assays:
Experiment in all cases: ELISA
[1] = biological target: complement component C4b, human (human) (UniProt P0C0L4)
[2] = biological target: T1, complement component C4b, human (human, UniProt P0C0L4 20-675; P0C0L4 757-1446; P0C0L4 1454-1744)
[3] = biological target: T1, complement component C4b, human; remark: listed apart in the source

T1 sequence (P0C0L4 20-675, chain 1 of 3): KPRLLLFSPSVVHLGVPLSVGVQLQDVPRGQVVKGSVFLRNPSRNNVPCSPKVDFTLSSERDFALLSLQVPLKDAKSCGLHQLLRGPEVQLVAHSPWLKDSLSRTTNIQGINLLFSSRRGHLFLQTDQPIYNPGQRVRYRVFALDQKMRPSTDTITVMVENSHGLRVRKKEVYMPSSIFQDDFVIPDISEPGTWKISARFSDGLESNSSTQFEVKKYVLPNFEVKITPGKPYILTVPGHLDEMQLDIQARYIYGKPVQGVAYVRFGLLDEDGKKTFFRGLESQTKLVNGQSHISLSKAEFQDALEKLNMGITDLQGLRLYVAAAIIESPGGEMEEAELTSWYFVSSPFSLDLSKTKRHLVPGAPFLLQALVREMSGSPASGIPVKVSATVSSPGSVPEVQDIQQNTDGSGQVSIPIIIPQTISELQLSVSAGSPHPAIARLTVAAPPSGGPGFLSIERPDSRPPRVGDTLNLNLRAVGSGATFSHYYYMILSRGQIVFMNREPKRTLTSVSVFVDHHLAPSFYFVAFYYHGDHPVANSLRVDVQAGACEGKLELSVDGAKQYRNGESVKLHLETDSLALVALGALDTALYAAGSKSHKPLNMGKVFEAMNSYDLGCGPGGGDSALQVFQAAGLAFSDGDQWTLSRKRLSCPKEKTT
T1 sequence (P0C0L4 757-1446, chain 2 of 3): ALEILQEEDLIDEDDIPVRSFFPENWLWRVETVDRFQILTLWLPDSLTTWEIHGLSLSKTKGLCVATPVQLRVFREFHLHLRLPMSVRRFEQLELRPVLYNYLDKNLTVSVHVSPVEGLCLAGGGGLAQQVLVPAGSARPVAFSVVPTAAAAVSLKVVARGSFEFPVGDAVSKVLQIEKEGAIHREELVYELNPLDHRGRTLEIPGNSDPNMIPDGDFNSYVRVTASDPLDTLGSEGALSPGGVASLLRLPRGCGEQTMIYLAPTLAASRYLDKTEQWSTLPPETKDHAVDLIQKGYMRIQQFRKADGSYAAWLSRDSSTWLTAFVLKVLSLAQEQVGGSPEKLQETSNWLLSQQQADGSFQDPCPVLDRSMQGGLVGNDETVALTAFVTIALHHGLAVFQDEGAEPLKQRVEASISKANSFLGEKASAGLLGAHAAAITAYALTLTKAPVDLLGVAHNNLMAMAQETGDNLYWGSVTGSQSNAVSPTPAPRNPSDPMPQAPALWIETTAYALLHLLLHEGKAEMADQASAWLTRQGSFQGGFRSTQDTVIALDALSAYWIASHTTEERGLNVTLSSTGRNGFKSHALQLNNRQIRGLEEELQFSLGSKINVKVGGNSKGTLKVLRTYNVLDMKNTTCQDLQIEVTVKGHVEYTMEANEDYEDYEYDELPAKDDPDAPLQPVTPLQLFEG
T1 sequence (P0C0L4 1454-1744, chain 3 of 3): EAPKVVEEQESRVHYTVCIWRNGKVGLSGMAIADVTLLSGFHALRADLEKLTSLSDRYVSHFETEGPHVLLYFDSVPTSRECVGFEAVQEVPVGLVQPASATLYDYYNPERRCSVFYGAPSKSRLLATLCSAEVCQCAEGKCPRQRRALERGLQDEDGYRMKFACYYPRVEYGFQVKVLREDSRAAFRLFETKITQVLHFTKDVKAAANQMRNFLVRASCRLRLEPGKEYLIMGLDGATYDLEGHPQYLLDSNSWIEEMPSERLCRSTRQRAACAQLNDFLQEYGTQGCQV
Sequence of complement component C4b, human (human) (P0C0L4 20-675, chain 1 of 3): as the sequence (P0C0L4 20-675, chain 1 of 3) above
Sequence of complement component C4b, human (human) (P0C0L4 757-1446, chain 2 of 3): as the sequence (P0C0L4 757-1446, chain 2 of 3) above
Sequence of complement component C4b, human (human) (P0C0L4 1454-1744, chain 3 of 3): as the sequence (P0C0L4 1454-1744, chain 3 of 3) above

| Molecule | Kd [1] [nM] | Kd [2] [nM] | Kd [3] [nM] |
| --- | --- | --- | --- |
| GST-tagged OspC from B. burgdorferi strain N40 clone D10/E9 (natural protein) | 233 | – | – |
| B1 | – | 476 | ~414 |
